Legend:
Format in all cases: biochemical
[1] = ω-Transaminase activity assay (7-aminoheptanol to 7-oxoheptanol); conditions: for acceptance of 7-aminoheptanol as substrate (formation of L-alanine, RP-HPLC): cell free extract, 10 mM 7-aminoheptanol, 10 mM pyruvate, pH 7.5, 25° C., 4 h, against empty vector control; for acceptance of 7-oxoheptanol as substrate forming 7-aminoheptanol: concluded from reversibility of the ω-transaminase activity (Example 2)
Description: A nucleotide sequence encoding an N-terminal His-tag was added to the Chromobacterium violaceum, Pseudomonas syringae and Rhodobacter sphaeroides genes encoding the ω-transaminases of SEQ ID NOs: 8, 10 and 11, respectively (see FIGS. 7F and 7G) such that N-terminal HIS tagged ω-transaminases could be produced. The modified genes were cloned into a pET21a expression vector under the T7 promoter. Each expression vector was transformed into a BL21[DE3] E. coli host. Each resulting recombinant E. coli strain were cultivated at 37° C. in a 250 mL shake flask culture containing 50 mL LB media and antibiotic selection pressure, with shaking at 230 rpm. Each culture was induced overnight at 16° C. using 1 mM IPTG.
(§1) The pellet from each induced shake flask culture was harvested via centrifugation. Each pellet was resuspended and lysed via sonication. The cell debris was separated from the supernatant via centrifugation and the cell free extract was used immediately in enzyme activity assays.
Enzyme activity assays in the reverse direction (i.e., 7-aminoheptanol to 7-oxoheptanol) were performed in a buffer composed of a final concentration of 50 mM HEPES buffer (pH=7.5), 10 mM 7-aminoheptanol, 10 mM pyruvate, and 100 μM pyridoxyl 5′ phosphate. Each enzyme activity assay reaction was initiated by adding cell free extract of the ω-transaminase gene product or the empty vector control to the assay buffer containing the 7-aminoheptanol and then incubated at 25° C. for 4 h, with shaking at 250 rpm. The formation of L-alanine was quantified via RP-HPLC.

[2] = ω-Transaminase activity assay, forward direction (pimelate semialdehyde to 7-aminoheptanoate); conditions: for acceptance of pimelate semialdehyde as substrate (formation of pyruvate from L-alanine, RP-HPLC): cell free extract, 10 mM pimelate semialdehyde, 10 mM L-alanine, pH 7.5, 25° C., 4 h, against empty vector control; for reversibility of ω-transaminase activity: accepts pimelate semialdehyde and synthesizes 7-aminoheptanoate: conclusion from reverse and forward direction assays
Description: (§2) A sequence encoding an N-terminal His-tag was added to the genes from Chromobacterium violaceum, Pseudomonas syringae, Rhodobacter sphaeroides, and Vibrio Fluvialis encoding the ω-transaminases of SEQ ID NOs: 8, 10, 11 and 13, respectively (see FIGS. 7F and 7G) such that N-terminal HIS tagged ω-transaminases could be produced. Each of the resulting modified genes was cloned into a pET21a expression vector under control of the T7 promoter and each expression vector was transformed into a BL21[DE3] E. coli host. The resulting recombinant E. coli strains were cultivated at 37° C. in a 250 mL shake flask culture containing 50 mL LB media and antibiotic selection pressure, with shaking at 230 rpm. Each culture was induced overnight at 16° C. using 1 mM IPTG.
as §1
Enzyme activity in the forward direction (i.e., pimelate semialdehyde to 7-aminoheptanoate) was confirmed for the transaminases of SEQ ID NO 10, SEQ ID NO 11 and SEQ ID NO 13. Enzyme activity assays were performed in a buffer composed of a final concentration of 50 mM HEPES buffer (pH=7.5), 10 mM pimelate semialdehyde, 10 mM L-alanine and 100 μM pyridoxyl 5′ phosphate. Each enzyme activity assay reaction was initiated by adding a cell free extract of the ω-transaminase gene product or the empty vector control to the assay buffer containing the pimelate semialdehyde and incubated at 25° C. for 4 h, with shaking at 250 rpm. The formation of pyruvate was quantified via RP-HPLC.

[3] = ω-Transaminase activity assay, reverse direction (7-aminoheptanoate to pimelate semialdehyde); conditions: cell free extract, 10 mM 7-aminoheptanoate, 10 mM pyruvate, pH 7.5, 25° C., 4 h, against empty vector control
Description: as §2, §1
Enzyme activity assays in the reverse direction (i.e., 7-aminoheptanoate to pimelate semialdehyde) were performed in a buffer composed of a final concentration of 50 mM HEPES buffer (pH =7.5), 10 mM 7-aminoheptanoate, 10 mM pyruvate and 100 μM pyridoxyl 5′ phosphate. Each enzyme activity assay reaction was initiated by adding cell free extract of the ω-transaminase gene product or the empty vector control to the assay buffer containing the 7-aminoheptanoate and incubated at 25° C. for 4 h, with shaking at 250 rpm. The formation of L-alanine from pyruvate was quantified via RP-HPLC.

[4] = Carboxylate reductase activity assay (N7-acetyl-7-aminoheptanoate to N7-acetyl-7-aminoheptanal); conditions: purified enzyme enhanced by sfp gene product, 2 mM N7-acetyl-7-aminoheptanoate, 1 mM ATP, 1 mM NADPH, pH 7.5, room temperature, 20 min, against empty vector control
Description: The activity of each of the N-terminal His-tagged carboxylate reductases of SEQ ID NOs: 3, 6, and 7 (see Example 4, and FIGS. 7B, 7E, and 7F) for converting N7-acetyl-7-aminoheptanoate to N7-acetyl-7-aminoheptanal was assayed in triplicate in a buffer composed of a final concentration of 50 mM HEPES buffer (pH=7.5), 2 mM N7-acetyl-7-aminoheptanoate, 10 mM MgCl2, 1 mM ATP, and 1 mM NADPH. The assays were initiated by adding purified carboxylate reductase and phosphopantetheine transferase or the empty vector control to the assay buffer containing the N7-acetyl-7-aminoheptanoate then incubated at room temperature for 20 min. The consumption of NADPH was monitored by absorbance at 340 nm.

| Molecule | acceptance of 7-aminoheptanol as substrate (formation of L-alanine, RP-HPLC) [1] | acceptance of 7-oxoheptanol as substrate forming 7-aminoheptanol [1] | acceptance of pimelate semialdehyde as substrate (formation of pyruvate from L-alanine, RP-HPLC) [2] | reversibility of ω-transaminase activity: accepts pimelate semialdehyde and synthesizes 7-aminoheptanoate [2] | acceptance of 7-aminoheptanoate as substrate (formation of L-alanine from pyruvate, RP-HPLC) [3] | acceptance of N7-acetyl-7-aminoheptanoate as substrate (consumption of NADPH, absorbance at 340 nm) [4] |
| --- | --- | --- | --- | --- | --- | --- |
| SEQ ID NO 11: Rhodobacter sphaeroides ω-transaminase, Genbank Accession No. ABA81135.1 | accepted 7-aminoheptanol as substrate | accept 7-oxoheptanol as substrate and form 7-aminoheptanol | accepted pimelate semialdehyde as substrate | accepted pimelate semialdehyde as substrate and synthesized 7-aminoheptanoate | accepted 7-aminoheptanote as substrate | – |
| SEQ ID NO 8: Chromobacterium violaceum ω-transaminase, Genbank Accession No. AAQ59697.1 (protein, listed as Chromobacterium violaceum) MQKQRTTSQWRELDAAHHLHPFTDTASLNQAGARVMTRGEGVYLWDSEGNKIIDGMAGLWCVNVGYGRKDFAEAARRQMEELPFYNTFFKTTHPAVVELSSLLAEVTPAGFDRVFYTNSGSESVDTMIRMVRRYWDVQGKPEKKTLIGRWNGYHGSTIGGASLGGMKYMHEQGDLPIPGMAHIEQPWWYKHGKDMTPDEFGVVAARWLEEKILEIGADKVAAFVGEPIQGAGGVIVPPATYWPEIERICRKYDVLLVADEVICGFGRTGEWFGHQHFGFQPDLFTAAKGLSSGYLPIGAVFVGKRVAEGLIAGGDFNHGFTYSGHPVCAAVAHANVAALRDEGIVQRVKDDIGPYMQKRWRETFSRFEHVDDVRGVGMVQAFTLVKNKAKRELFPDFGEIGTLCRDIFFRNNLIMRACGDHIVSAPPLVMTRAEVDEMLAVAERCLEEFEQTLKARGLA | accepted 7-aminoheptanol as substrate | accept 7-oxoheptanol as substrate and form 7-aminoheptanol | – | accepted pimelate semialdehyde as substrate and synthesized 7-aminoheptanoate | accepted 7-aminoheptanote as substrate | – |
| SEQ ID NO 10: Pseudomonas syringae ω-transaminase, Genbank Accession No. AAY39893.1 (protein, listed as Pseudomonas syringae) MSANNPQTLEWQALSSEHHLAPFSDYKQLKEKGPRIITRAEGVYLWDSEGNKILDGMSGLWCVAIGYGREELADAASKQMRELPYYNLFFQTAHPPVLELAKAISDIAPEGMNHVFFTGSGSEGNDTMLRMVRHYWALKGQPNKKTIISRVNGYHGSTVAGASLGGMTYMHEQGDLPIPGVVHIPQPYWFGEGGDMTPDEFGIWAAEQLEKKILELGVENVGAFIAEPIQGAGGVIVPPDSYWPKIKEILSRYDILFAADEVICGFGRTSEWFGSDFYGLRPDMMTIAKGLTSGYVPMGGLIVRDEIVAVLNEGGDFNHGFTYSGHPVAAAVALENIRILREEKIVERVRSETAPYLQKRLRELSDHPLVGEVRGVGLLGAIELVKDKTTRERYTDKGAGMICRTFCFDNGLIMRAVGDTMIIAPPLVISFAQIDELVEKARTCLDLTLAVLQG | accepted 7-aminoheptanol as substrate | accept 7-oxoheptanol as substrate and form 7-aminoheptanol | accepted pimelate semialdehyde as substrate | accepted pimelate semialdehyde as substrate and synthesized 7-aminoheptanoate | accepted 7-aminoheptanote as substrate | – |
| SEQ ID NO 13: Vibrio fluvialis ω-transaminase, Genbank Accession No. AEA39183.1 (protein, listed as Vibrio fluvialis) MNKPQSWEARAETYSLYGFTDMPSLHQRGTVVVTHGEGPYIVDVNGRRYLDANSGLWNMVAGFDHKGLIDAAKAQYERFPGYHAFFGRMSDQTVMLSEKLVEVSPFDSGRVFYTNSGSEANDTMVKMLWFLHAAEGKPQKRKILTRWNAYHGVTAVSASMTGKPYNSVFGLPLPGFVHLTCPHYWRYGEEGETEEQFVARLARELEETIQREGADTIAGFFAEPVMGAGGVIPPAKGYFQAILPILRKYDIPVISDEVICGFGRTGNTWGCVTYDFTPDAIISSKNLTAGFFPMGAVILGPELSKRLETAIEAIEEFPHGFTASGHPVGCAIALKAIDVVMNEGLAENVRRLAPRFEERLKHIAERPNIGEYRGIGFMWALEAVKDKASKTPFDGNLSVSERIANTCTDLGLICRPLGQSVVLCPPFILTEAQMDEMFDKLEKALDKVFAEVA | – | – | accepted pimelate semialdehyde as substrate | accepted pimelate semialdehyde as substrate and synthesized 7-aminoheptanoate | accepted 7-aminoheptanote as substrate | – |
| SEQ ID NO 3: Mycobacterium smegmatis carboxylate reductase, Genbank Accession No. ABK71854.1 (protein, listed as Mycobacterium smegmatis) MTSDVHDATDGVTETALDDEQSTRRIAELYATDPEFAAAAPLPAVVDAAHKPGLRLAEILQTLFTGYGDRPALGYRARELATDEGGRTVTRLLPRFDTLTYAQVWSRVQAVAAALRHNFAQPIYPGDAVATIGFASPDYLTLDLVCAYLGLVSVPLQHNAPVSRLAPILAEVEPRILTVSAEYLDLAVESVRDVNSVSQLVVFDHHPEVDDHRDALARAREQLAGKGIAVTTLDAIADEGAGLPAEPIYTADHDQRLAMILYTSGSTGAPKGAMYTEAMVARLWTMSFITGDPTPVINVNFMPLNHLGGRIPISTAVQNGGTSYFVPESDMSTLFEDLALVRPTELGLVPRVADMLYQHHLATVDRLVTQGADELTAEKQAGAELREQVLGGRVITGFVSTAPLAAEMRAFLDITLGAHIVDGYGLTETGAVTRDGVIVRPPVIDYKLIDVPELGYFSTDKPYPRGELLVRSQTLTPGYYKRPEVTASVFDRDGYYHTGDVMAETAPDHLVYVDRRNNVLKLAQGEFVAVANLEAVFSGAALVRQIFVYGNSERSFLLAVVVPTPEALEQYDPAALKAALADSLQRTARDAELQSYEVPADFIVETEPFSAANGLLSGVGKLLRPNLKDRYGQRLEQMYADIAATQANQLRELRRAAATQPVIDTLTQAAATILGTGSEVASDAHFTDLGGDSLSALTLSNLLSDFFGFEVPVGTIVNPATNLAQLAQHIEAQRTAGDRRPSFTTVHGADATEIRASELTLDKFIDAETLRAAPGLPKVTTEPRTVLLSGANGWLGRFLTLQWLERLAPVGGTLITIVRGRDDAAARARLTQAYDTDPELSRRFAELADRHLRVVAGDIGDPNLGLTPEIWHRLAAEVDLVVHPAALVNHVLPYRQLFGPNVVGTAEVIKLALTERIKPVTYLSTVSVAMGIPDFEEDGDIRTVSPVRPLDGGYANGYGNSKWAGEVLLREAHDLCGLPVATFRSDMILAHPRYRGQVNVPDMFTRLLLSLLITGVAPRSFYIGDGERPRAHYPGLTVDFVAEAVTTLGAQQREGYVSYDVMNPHDDGISLDVFVDWLIRAGHPIDRVDDYDDWVRRFETALTALPEKRRAQTVLPLLHAFRAPQAPLRGAPEPTEVFHAAVRTAKVGPGDIPHLDEALIDKYIRDLREFGLI | – | – | – | – | – | accepted N7-acetyl-7-aminoheptanoate as substrate |

— US9617572B2, “Methods of producing 7-carbon chemicals via aromatic compounds” (INVISTA North America S.á r.l., priority 2012, dated 2017)
